Measurements: paper doi:10.1101/812099 (bioRxiv, 2019)

B3: Kapβ2(ΔLoop) (natural protein)
chain: MEYEWKPDEQGLQQILQLLKESQSPDTTIQRTVQQKLEQLNQYPDFNNYLIFVLTKLKSEDEPTRSLSGLILKNNVKAHFQNFPNGVTDFIKSECLNNIGDSSPLIRATVGILITTIASKGELQNWPDLLPKLCSLLDSEDYNTCEGAFGALQKICEDSAEILDSDVLDRPLNIMIPKFLQFFKHSSPKIRSHAVACVNQFIISRTQALMLHIDSFIENLFALAGDEEPEVRKNVCRALVMLLEVRMDRLLPHMHNIVEYMLQRTQDQDENVALEACEFWLTLAEQPICKDVLVRHLPKLIPVLVNGMKYSDIDIILLKGGGSGGSGSDWNLRKCSAAALDVLANVYRDELLPHILPLLKELLFHHEWVVKESGILVLGAIAEGCMQGMIPYLPELIPHLIQCLSDKKALVRSITCWTLSRYAHWVVSQPPDTYLKPLMTELLKRILDSNKRVQEAACSAFATLEEEACTELVPYLAYILDTLVFAFSKYQHKNLLILYDAIGTLADSVGHHLNKPEYIQMLMPPLIQKWNMLKDEDKDLFPLLECLSSVATALQSGFLPYCEPVYQRCVNLVQKTLAQAMLNNAQPDQYEAPDKDFMIVALDLLSGLAEGLGGNIEQLVARSNILTLMYQCMQDKMPEVRQSSFALLGDLTKACFQHVKPCIADFMPILGTNLNPEFISVCNNATWAIGEISIQMGIEMQPYIPMVLHQLVEIINRPNTPKTLLENTAITIGRLGYVCPQEVAPMLQQFIRPWCTSLRNIRDNEEKDSAFRGICTMISVNPSGVIQDFIFFCDAVASWINPKDDLRDMFCKILHGFKNQVGDENWRRFSDQFPLPLKERLAAFYGV

What was measured:
FUS-LC fused to mCherry = target: T1, FUS-LC fused to mCherry (UniProt P35637 2-214); assay: hydrogel binding assay
T1 sequence: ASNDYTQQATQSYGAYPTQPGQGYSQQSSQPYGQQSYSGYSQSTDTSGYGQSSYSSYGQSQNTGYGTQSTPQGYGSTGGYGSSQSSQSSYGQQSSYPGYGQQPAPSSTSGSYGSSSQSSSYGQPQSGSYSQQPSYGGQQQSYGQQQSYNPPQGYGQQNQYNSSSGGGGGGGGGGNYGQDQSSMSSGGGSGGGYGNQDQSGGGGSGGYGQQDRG

Kapβ2 [1] = target: T2, Kapβ2 (UniProt Q92973-2 1-890); assay: hydrogel binding assay
T2 sequence: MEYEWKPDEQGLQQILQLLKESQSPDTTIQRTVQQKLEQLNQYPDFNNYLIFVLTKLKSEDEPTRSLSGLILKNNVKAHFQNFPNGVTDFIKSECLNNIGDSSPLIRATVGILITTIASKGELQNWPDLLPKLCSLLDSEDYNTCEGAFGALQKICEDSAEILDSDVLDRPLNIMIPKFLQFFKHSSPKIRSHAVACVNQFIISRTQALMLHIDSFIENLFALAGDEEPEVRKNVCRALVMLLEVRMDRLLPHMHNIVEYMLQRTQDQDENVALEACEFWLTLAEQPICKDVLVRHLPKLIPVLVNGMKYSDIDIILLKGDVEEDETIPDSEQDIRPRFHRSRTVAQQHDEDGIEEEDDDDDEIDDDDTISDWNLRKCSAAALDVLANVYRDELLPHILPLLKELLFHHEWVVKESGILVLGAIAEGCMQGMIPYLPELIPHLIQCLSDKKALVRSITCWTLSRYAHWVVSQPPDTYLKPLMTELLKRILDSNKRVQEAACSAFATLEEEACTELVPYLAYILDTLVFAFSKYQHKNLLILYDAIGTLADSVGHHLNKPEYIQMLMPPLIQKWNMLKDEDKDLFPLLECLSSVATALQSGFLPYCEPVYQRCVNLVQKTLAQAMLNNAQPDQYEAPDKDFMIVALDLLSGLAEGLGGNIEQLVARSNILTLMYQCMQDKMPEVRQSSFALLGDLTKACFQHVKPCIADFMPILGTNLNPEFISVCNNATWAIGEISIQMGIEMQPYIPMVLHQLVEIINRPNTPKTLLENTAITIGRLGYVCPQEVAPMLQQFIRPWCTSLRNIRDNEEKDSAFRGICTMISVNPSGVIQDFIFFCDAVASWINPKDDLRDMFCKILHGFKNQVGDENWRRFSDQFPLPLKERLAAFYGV

MBP-FUS = target: T3, MBP-FUS (UniProt P35637 1-526); assay: ITC
T3 sequence: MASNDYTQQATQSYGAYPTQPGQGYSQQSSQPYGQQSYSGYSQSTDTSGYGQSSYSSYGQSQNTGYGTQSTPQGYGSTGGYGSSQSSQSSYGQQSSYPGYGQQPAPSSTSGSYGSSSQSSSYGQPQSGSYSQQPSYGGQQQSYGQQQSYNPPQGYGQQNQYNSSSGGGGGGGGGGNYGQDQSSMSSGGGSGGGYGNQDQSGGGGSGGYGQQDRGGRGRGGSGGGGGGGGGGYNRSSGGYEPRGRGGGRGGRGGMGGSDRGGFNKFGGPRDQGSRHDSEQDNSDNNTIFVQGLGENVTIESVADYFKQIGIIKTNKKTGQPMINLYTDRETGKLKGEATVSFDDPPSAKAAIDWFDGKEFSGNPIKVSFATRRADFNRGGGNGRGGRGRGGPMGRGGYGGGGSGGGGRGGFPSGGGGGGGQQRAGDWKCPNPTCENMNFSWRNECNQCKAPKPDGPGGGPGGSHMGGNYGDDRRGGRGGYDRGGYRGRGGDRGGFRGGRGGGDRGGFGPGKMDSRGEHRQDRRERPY

Kapβ2 [2] = target: T2, Kapβ2; assay: NMR titration
Kapβ2 [3] = target: T2, Kapβ2; assay: pull-down
Kapβ2(ΔLoop) = target: B3; assay: ITC
GST-Kapβ2 = target: T4, GST-Kapβ2 (UniProt Q92973-2 1-890); assay: pull-down
T4 sequence: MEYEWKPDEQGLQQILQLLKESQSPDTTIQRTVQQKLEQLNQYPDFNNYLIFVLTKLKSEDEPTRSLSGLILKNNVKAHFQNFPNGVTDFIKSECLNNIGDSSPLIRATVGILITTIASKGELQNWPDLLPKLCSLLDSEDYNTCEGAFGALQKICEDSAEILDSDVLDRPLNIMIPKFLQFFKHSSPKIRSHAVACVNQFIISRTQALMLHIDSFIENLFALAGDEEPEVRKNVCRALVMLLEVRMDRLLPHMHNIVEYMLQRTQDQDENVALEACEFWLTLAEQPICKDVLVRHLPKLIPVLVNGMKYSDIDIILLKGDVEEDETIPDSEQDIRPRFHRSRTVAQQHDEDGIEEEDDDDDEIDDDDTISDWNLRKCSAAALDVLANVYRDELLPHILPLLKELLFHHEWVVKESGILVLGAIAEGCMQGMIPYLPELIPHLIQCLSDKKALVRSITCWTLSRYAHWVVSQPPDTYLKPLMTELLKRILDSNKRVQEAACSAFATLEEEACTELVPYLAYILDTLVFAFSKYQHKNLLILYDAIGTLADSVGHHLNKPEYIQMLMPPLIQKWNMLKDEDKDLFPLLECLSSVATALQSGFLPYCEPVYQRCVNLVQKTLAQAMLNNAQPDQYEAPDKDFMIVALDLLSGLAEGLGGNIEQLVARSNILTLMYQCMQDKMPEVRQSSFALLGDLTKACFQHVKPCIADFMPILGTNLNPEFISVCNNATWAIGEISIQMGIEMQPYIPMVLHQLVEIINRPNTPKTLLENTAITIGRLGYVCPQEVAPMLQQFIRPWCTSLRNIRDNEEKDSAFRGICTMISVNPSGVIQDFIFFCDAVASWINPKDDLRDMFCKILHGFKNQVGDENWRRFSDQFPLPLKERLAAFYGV

B1: GFP:FUS-LC (domain or fragment)
chain: ASNDYTQQATQSYGAYPTQPGQGYSQQSSQPYGQQSYSGYSQSTDTSGYGQSSYSSYGQSQNTGYGTQSTPQGYGSTGGYGSSQSSQSSYGQQSSYPGYGQQPAPSSTSGSYGSSSQSSSYGQPQSGSYSQQPSYGGQQQSYGQQQSYNPPQGYGQQNQYNSSSGGGGGGGGGGNYGQDQSSMSSGGGSGGGYGNQDQSGGGGSGGYGQQDRG
B1: binds (FUS-LC fused to mCherry).

B2: GFP:hnRNPA2-LC (domain or fragment)
chain: MQEVQSSRSGRGGNFGFGDSRGGGGNFGPGPGSNFRGGSDGYGSGRGFGDGYNGYGGGPGGGNFGGSPGYGGGRGGYGGGGPGYGNQGGGYGGGYDNYGGGNYGSGNYNDFGNYNQQPSNYGPMKSGNFGGSRNMGGPYGGGNYGPGGSGGSGGYGGRSRY
B2: binds (Kapβ2 [1]).

B3: binds (MBP-FUS).

PRPRPRPRPRPRPRPRPRPRPRPRPRPRPRPRPRPRPRPR [(Pro-Arg)20-HA]: binds (Kapβ2 [2]).

B4: FUS(1-500) (domain or fragment)
chain: MASNDYTQQATQSYGAYPTQPGQGYSQQSSQPYGQQSYSGYSQSTDTSGYGQSSYSSYGQSQNTGYGTQSTPQGYGSTGGYGSSQSSQSSYGQQSSYPGYGQQPAPSSTSGSYGSSSQSSSYGQPQSGSYSQQPSYGGQQQSYGQQQSYNPPQGYGQQNQYNSSSGGGGGGGGGGNYGQDQSSMSSGGGSGGGYGNQDQSGGGGSGGYGQQDRGGRGRGGSGGGGGGGGGGYNRSSGGYEPRGRGGGRGGRGGMGGSDRGGFNKFGGPRDQGSRHDSEQDNSDNNTIFVQGLGENVTIESVADYFKQIGIIKTNKKTGQPMINLYTDRETGKLKGEATVSFDDPPSAKAAIDWFDGKEFSGNPIKVSFATRRADFNRGGGNGRGGRGRGGPMGRGGYGGGGSGGGGRGGFPSGGGGGGGQQRAGDWKCPNPTCENMNFSWRNECNQCKAPKPDGPGGGPGGSHMGGNYGDDRRGGRGGYDRGGYRGRGGDRGGFRGGRGG
B4: binds (Kapβ2 [2]).

PRPRPRPRPRPRPRPRPRPRPRPRPRPRPRPRPRPR [GST-PR18]: binds (Kapβ2 [3]).

For PRPRPRPRPRPRPRPRPRPRPRPRPRPRPRPRPRPR [MBP-PR18], the Kd (Kapβ2(ΔLoop)) was 81.3 nM, the “stoichiometry N” value (Kapβ2(ΔLoop)) was 1 and the binding result (GST-Kapβ2) was “binds”.
